Patent US8552157B2, “c-Kit antibodies and uses thereof” (ImClone LLC, priority 2011, dated 2013)
One block for each compound: values may come before it.

Tests used:
[1] = system: MALM-3M human melanoma cell line xenograft; experiment: Xenograft tumor growth inhibition, MALM-3M; format: in vivo, athymic nude mice
Method: Briefly described, c-Kit-dependent human cancer cell lines are expanded in culture and then are injected subcutaneously into the rear flank of athymic nude mice (Charles River, Wilmington, Mass.) with 2-10 million cells per mouse. Anti-c-Kit mAbs are diluted in PBS, pH 7.2, and administered by intravenous injection at 4 or 40 mg/kg. […] Furthermore, treatment groups may include appropriate chemotherapy drugs or approved RTK inhibitors alone or in combination with the antibodies of the present invention. Antibodies and saline control are administered three times per week for four weeks Inhibition of tumor cell growth is determined by three dimensional caliper measurement of tumor volume twice weekly during the course of treatment. Tumor volume may be calculated as follows: Tumor volume(mm^3)=(length of the tumor)(width^2 of the tumor)(π/6), where the length of the tumor is the largest dimension of the tumor parallel to the skin surface and the width is the largest measurement perpendicular to the length, parallel to the skin surface. Body weight may also be measured frequently during the course of treatment as a general measurement of toxicity. T/C %, and P values are calculated by RM ANOVA where, T/C %=[(Treatment Volume/Initial Volume)/(Control Volume/Initial Volume)]*100 and the P value is calculated in relation to saline.

c-Kit in Mo7e cells [2] = molecular target: T1, c-Kit in Mo7e cells (Homo sapiens, UniProt P10721); experiment: In vitro c-Kit degradation assay (Example 7, western blot), Mo7e; format: cell-based; details: SCF 100 ng/ml, 12, 24, and 48 hours at 37° C., data not shown
T1 construct: endogenous in cells; host or cells: Mo7e (human megakaryocytic leukemia)
T1 sequence (P10721 26-976): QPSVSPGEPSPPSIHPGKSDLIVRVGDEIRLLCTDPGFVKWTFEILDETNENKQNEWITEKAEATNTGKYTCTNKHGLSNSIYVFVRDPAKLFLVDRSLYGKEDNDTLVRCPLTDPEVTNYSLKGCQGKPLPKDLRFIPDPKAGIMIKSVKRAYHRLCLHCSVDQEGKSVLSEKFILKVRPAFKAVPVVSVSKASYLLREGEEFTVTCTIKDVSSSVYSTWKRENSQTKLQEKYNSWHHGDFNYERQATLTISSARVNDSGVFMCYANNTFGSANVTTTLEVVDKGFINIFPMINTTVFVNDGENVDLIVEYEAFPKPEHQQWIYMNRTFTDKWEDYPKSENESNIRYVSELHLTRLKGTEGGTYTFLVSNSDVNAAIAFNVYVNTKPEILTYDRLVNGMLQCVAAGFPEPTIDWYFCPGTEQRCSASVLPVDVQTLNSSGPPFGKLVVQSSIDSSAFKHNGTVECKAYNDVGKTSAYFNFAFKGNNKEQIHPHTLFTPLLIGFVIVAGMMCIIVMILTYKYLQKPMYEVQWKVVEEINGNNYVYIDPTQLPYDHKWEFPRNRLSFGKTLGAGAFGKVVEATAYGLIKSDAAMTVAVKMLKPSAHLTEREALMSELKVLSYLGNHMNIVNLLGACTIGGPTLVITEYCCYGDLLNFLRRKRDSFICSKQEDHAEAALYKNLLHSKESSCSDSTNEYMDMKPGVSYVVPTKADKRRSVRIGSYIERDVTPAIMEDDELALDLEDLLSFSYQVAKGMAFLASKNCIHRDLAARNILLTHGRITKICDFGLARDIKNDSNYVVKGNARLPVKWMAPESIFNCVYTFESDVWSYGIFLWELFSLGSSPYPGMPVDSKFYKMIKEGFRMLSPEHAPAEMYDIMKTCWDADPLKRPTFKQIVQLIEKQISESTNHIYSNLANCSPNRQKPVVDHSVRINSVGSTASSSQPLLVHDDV
Method: An in vitro cell based assay may be used to measure the ability of c-Kit mAbs to induce degradation of c-Kit as measured by the amount of total c-Kit found in cell lysates after treating tumor cells with a c-Kit mAb at 37° C. Briefly, human cell lines expressing c-Kit (e.g., Mo7e and GIST882) are plated in a 6-well dish at a density of 3×10^6 cells/ml in 3 ml of serum-free media. […] One well of cells is left untreated as a control. Immediately after the treatment period, the cells are washed in cold PBS, lysed in 100 μl lysis buffer (50 mM Hepes pH 7.5, 150 mM NaCl, 10 mM NaPPi, 50 mM NaF, 1 mM Na3VO4, 1% Triton X-100, protease inhibitor cocktail). After a ten minute incubation on ice, the cells are centrifuged at 12,000 g for 15 minutes at 4° C. The supernatant is collected and subjected to western blot analysis under reducing conditions. […] As expected from previous reports in the scientific literature,
degradation of c-Kit was not observed after treatment of the tumor cells with SCF (100 ng/ml) for 12, 24, and 48 hours at 37° C. (data not shown).

c-Kit in Mo7e cells [3] = molecular target: T1, c-Kit in Mo7e cells; experiment: In vitro c-Kit degradation assay (Example 7a, western blot), Mo7e; format: cell-based
Method: Human cell lines expressing c-Kit (e.g., GIST882, Mo7e, and Malm-3M) are plated in a 6-well dish at a density of 3×10^6 cells/ml in 3 ml of serum-free media for all but one Mo7e assay that uses 10% serum. […] One well of cells is left untreated as a control. Immediately after the treatment period, the cells are washed in cold PBS, lysed in 100 μl lysis buffer (50 mM Hepes pH 7.5, 150 mM NaCl, 10 mM NaPPi, 50 mM NaF, 1 mM Na3VO4, 1% Triton X-100, protease inhibitor cocktail). After a ten minute incubation on ice, the cells are centrifuged at 12,000 g for 15 minutes at 4° C. The supernatant is collected and subjected to western blot analysis under reducing conditions. […] SCF induced degradation is not apparent when using 10% serum. (Replicates of GIST882=1, Mo7e=3, and Malm-3M=1).

c-Kit in GIST882 cells = molecular target: T2, c-Kit in GIST882 cells (Homo sapiens, UniProt P10721, K642E); experiment: In vitro c-Kit degradation assay (Example 7, western blot), GIST882; format: cell-based; details: SCF 100 ng/ml, 12, 24, and 48 hours at 37° C., data not shown
T2 construct: endogenous in cells; host or cells: GIST882 (human gastrointestinal stromal tumor)
T2 sequence (P10721 26-976 K642E): as the sequence (P10721 26-976) above, with K617E counted along it

Compound: CN(C)/N=N/c1[nH]cnc1C(N)=O [DTIC, dacarbazine, reference compound]
- T/C % ([1]; Table 13 upper part, DTIC 80 mg/kg, P value 0.0021): 68%

Compound: Cc1ccc(NC(=O)c2ccc(CN3CCN(C)CC3)cc2)cc1Nc1nccc(-c2cccnc2)n1 [Imatinib, imatinib, reference compound]
- T/C % ([1]; Table 13 lower part, Imatinib 100 mg/kg, P value 0.0001): 61%

Compound: CCN(CC)CCNC(=O)c1c(C)[nH]c(/C=C2\C(=O)Nc3ccc(F)cc32)c1C [Sunitinib, sunitinib, reference compound]
- T/C % ([1]; Table 13 lower part, Sunitinib 40 mg/kg, P value 0.0004): 68%

- degradation of c-Kit, in words (c-Kit in Mo7e cells [2]): not observed
- degradation of c-Kit, in words (c-Kit in Mo7e cells [3]; SCF 1 ug/ml and 100 ng/ml, 24 hours at 37° C., 0% serum): Degradation of c-Kit is observed
- degradation of c-Kit, in words (c-Kit in Mo7e cells [3]; SCF, 10% serum): not apparent
- degradation of c-Kit, in words (c-Kit in GIST882 cells): not observed
Compound: SCF: c-Kit ligand stem cell factor (SCF) [reference compound]
